# From PMC6005765 (Bioorganic & medicinal chemistry letters, 2018)
# Starred links: 1 amine or outer side, 2 acyl side, 3 side chain; linkers in the order of their positions; H or OH if unused. Non-standard residues stand in square brackets, D forms with d. Residues, ends and D or L forms follow the SMILES beside them. No end group written: not given here. Phe(2-(4-CF3-phenyl)) = O=C([C@H](Cc1ccccc1-c1ccc(C(F)(F)F)cc1)N[*:1])[*:2]; Phe(2-(4-MeO-phenyl)) = COc1ccc(-c2ccccc2C[C@H](N[*:1])C(=O)[*:2])cc1; Phe(2-(4-Cl-phenyl)) = O=C([C@H](Cc1ccccc1-c1ccc(Cl)cc1)N[*:1])[*:2]; Phe(2-(4-F-phenyl)) = O=C([C@H](Cc1ccccc1-c1ccc(F)cc1)N[*:1])[*:2]; Phe(3-(3-thienyl)) = O=C([C@H](Cc1cccc(-c2ccsc2)c1)N[*:1])[*:2]; Phe(4-(3-thienyl)) = O=C([C@H](Cc1ccc(-c2ccsc2)cc1)N[*:1])[*:2]; Phe(2-(3-thienyl)) = O=C([C@H](Cc1ccccc1-c1ccsc1)N[*:1])[*:2]; Phe(3-vinyl) = C=Cc1cccc(C[C@H](N[*:1])C(=O)[*:2])c1; Phe(4-vinyl) = C=Cc1ccc(C[C@H](N[*:1])C(=O)[*:2])cc1; Phe(2-vinyl) = C=Cc1ccccc1C[C@H](N[*:1])C(=O)[*:2]; Phe(3-Ph) = N[C@@H](Cc1cccc(-c2ccccc2)c1)C(=O)O; Phe(2-Ph) = N[C@@H](Cc1ccccc1-c1ccccc1)C(=O)O; Bip = N[C@@H](Cc1ccc(-c2ccccc2)cc1)C(=O)O; Dmt = Cc1cc(O)cc(C)c1C[C@H](N)C(=O)O; dNMeA = CN[C@H](C)C(=O)O
# B1: Dmt-D-Ala-Phe(2-phenyl)-Gly-NH2 (peptide)
# peptide: [Dmt][dA][Phe(2-Ph)]G-NH2
# modifications: N-terminus assumed
# SMILES: Cc1cc(O)cc(C)c1C[C@H](N)C(=O)N[C@H](C)C(=O)N[C@@H](Cc1ccccc1-c1ccccc1)C(=O)NCC(N)=O
# B2: Dmt-D-Arg-Phe(2-(4-Cl-phenyl))-Gly-NH2 (peptide)
# peptide: [Dmt][dR][Phe(2-(4-Cl-phenyl))]G-NH2
# modifications: N-terminus assumed
# SMILES: Cc1cc(O)cc(C)c1C[C@H](N)C(=O)N[C@H](CCCNC(=N)N)C(=O)N[C@@H](Cc1ccccc1-c1ccc(Cl)cc1)C(=O)NCC(N)=O
# B3: Dmt-D-Arg-Phe(4-phenyl)-Gly-NH2 (peptide)
# peptide: [Dmt][dR][Bip]G-NH2
# modifications: N-terminus assumed
# SMILES: Cc1cc(O)cc(C)c1C[C@H](N)C(=O)N[C@H](CCCNC(=N)N)C(=O)N[C@@H](Cc1ccc(-c2ccccc2)cc1)C(=O)NCC(N)=O
# B4: Dmt-D-Ala-Phe(2-vinyl)-Gly-NH2 (peptide)
# peptide: [Dmt][dA][Phe(2-vinyl)]G-NH2
# modifications: N-terminus assumed
# SMILES: C=Cc1ccccc1C[C@H](NC(=O)[C@@H](C)NC(=O)[C@@H](N)Cc1c(C)cc(O)cc1C)C(=O)NCC(N)=O
# B5: Dmt-D-Arg-Phe(2-(4-MeO-phenyl))-Gly-NH2 (peptide)
# peptide: [Dmt][dR][Phe(2-(4-MeO-phenyl))]G-NH2
# modifications: N-terminus assumed
# SMILES: COc1ccc(-c2ccccc2C[C@H](NC(=O)[C@@H](CCCNC(=N)N)NC(=O)[C@@H](N)Cc2c(C)cc(O)cc2C)C(=O)NCC(N)=O)cc1
# B6: Dmt-D-Arg-Phe(4-(3-thienyl))-Gly-NH2 (peptide)
# peptide: [Dmt][dR][Phe(4-(3-thienyl))]G-NH2
# modifications: N-terminus assumed
# SMILES: Cc1cc(O)cc(C)c1C[C@H](N)C(=O)N[C@H](CCCNC(=N)N)C(=O)N[C@@H](Cc1ccc(-c2ccsc2)cc1)C(=O)NCC(N)=O
# B7: Dmt-D-Arg-Phe(3-vinyl)-Gly-NH2 (peptide)
# peptide: [Dmt][dR][Phe(3-vinyl)]G-NH2
# modifications: N-terminus assumed
# SMILES: C=Cc1cccc(C[C@H](NC(=O)[C@@H](CCCNC(=N)N)NC(=O)[C@@H](N)Cc2c(C)cc(O)cc2C)C(=O)NCC(N)=O)c1
# B8: Dmt-D-Arg-Phe(2-phenyl)-Gly-NH2 (peptide)
# peptide: [Dmt][dR][Phe(2-Ph)]G-NH2
# modifications: N-terminus assumed
# SMILES: Cc1cc(O)cc(C)c1C[C@H](N)C(=O)N[C@H](CCCNC(=N)N)C(=O)N[C@@H](Cc1ccccc1-c1ccccc1)C(=O)NCC(N)=O
# B9: Dmt-D-Arg-Phe(3-(3-thienyl))-Gly-NH2 (peptide)
# peptide: [Dmt][dR][Phe(3-(3-thienyl))]G-NH2
# modifications: N-terminus assumed
# SMILES: Cc1cc(O)cc(C)c1C[C@H](N)C(=O)N[C@H](CCCNC(=N)N)C(=O)N[C@@H](Cc1cccc(-c2ccsc2)c1)C(=O)NCC(N)=O
# B10: Dmt-D-Arg-Phe-Gly-NH2 (peptide)
# peptide: [Dmt][dR]FG-NH2
# modifications: N-terminus assumed
# SMILES: Cc1cc(O)cc(C)c1C[C@H](N)C(=O)N[C@H](CCCNC(=N)N)C(=O)N[C@@H](Cc1ccccc1)C(=O)NCC(N)=O
# B11: Dmt-D-Arg-Phe(4-vinyl)-Gly-NH2 (peptide)
# peptide: [Dmt][dR][Phe(4-vinyl)]G-NH2
# modifications: N-terminus assumed
# SMILES: C=Cc1ccc(C[C@H](NC(=O)[C@@H](CCCNC(=N)N)NC(=O)[C@@H](N)Cc2c(C)cc(O)cc2C)C(=O)NCC(N)=O)cc1
# B12: Dmt-D-Arg-Phe(2-(4-F-phenyl))-Gly-NH2 (peptide)
# peptide: [Dmt][dR][Phe(2-(4-F-phenyl))]G-NH2
# modifications: N-terminus assumed
# SMILES: Cc1cc(O)cc(C)c1C[C@H](N)C(=O)N[C@H](CCCNC(=N)N)C(=O)N[C@@H](Cc1ccccc1-c1ccc(F)cc1)C(=O)NCC(N)=O
# B13: Dmt-D-Arg-Phe(2-vinyl)-Gly-NH2 (peptide)
# peptide: [Dmt][dR][Phe(2-vinyl)]G-NH2
# modifications: N-terminus assumed
# SMILES: C=Cc1ccccc1C[C@H](NC(=O)[C@@H](CCCNC(=N)N)NC(=O)[C@@H](N)Cc1c(C)cc(O)cc1C)C(=O)NCC(N)=O
# B14: Dmt-D-Arg-Phe(2-(3-thienyl))-Gly-NH2 (peptide)
# peptide: [Dmt][dR][Phe(2-(3-thienyl))]G-NH2
# modifications: N-terminus assumed
# SMILES: Cc1cc(O)cc(C)c1C[C@H](N)C(=O)N[C@H](CCCNC(=N)N)C(=O)N[C@@H](Cc1ccccc1-c1ccsc1)C(=O)NCC(N)=O
# B15: Dmt-D-Arg-Phe(2-(4-CF3-phenyl))-Gly-NH2 (peptide)
# peptide: [Dmt][dR][Phe(2-(4-CF3-phenyl))]G-NH2
# modifications: N-terminus assumed
# SMILES: Cc1cc(O)cc(C)c1C[C@H](N)C(=O)N[C@H](CCCNC(=N)N)C(=O)N[C@@H](Cc1ccccc1-c1ccc(C(F)(F)F)cc1)C(=O)NCC(N)=O
# B16: Dmt-N-Me-D-Ala-Phe(2-vinyl)-Gly-NH2 (peptide)
# peptide: [Dmt][dNMeA][Phe(2-vinyl)]G-NH2
# modifications: N-terminus assumed
# SMILES: C=Cc1ccccc1C[C@H](NC(=O)[C@@H](C)N(C)C(=O)[C@@H](N)Cc1c(C)cc(O)cc1C)C(=O)NCC(N)=O
# B17: Dmt-D-Arg-Phe(3-phenyl)-Gly-NH2 (peptide)
# peptide: [Dmt][dR][Phe(3-Ph)]G-NH2
# modifications: N-terminus assumed
# SMILES: Cc1cc(O)cc(C)c1C[C@H](N)C(=O)N[C@H](CCCNC(=N)N)C(=O)N[C@@H](Cc1cccc(-c2ccccc2)c1)C(=O)NCC(N)=O
# Legend:
# μ opioid receptor [1] = biological target: μ opioid receptor (UniProt P35372)
# δ opioid receptor [2] = biological target: δ opioid receptor (UniProt P41143)
# [3] = test system: guinea pig ileum (GPI), MOP; conditions: in vitro
# μ opioid receptor (MOP) = μ opioid receptor (MOP) (Homo sapiens, UniProt P35372); assay type: binding; conditions: [125I]-DAMGO competition, HEK293 membranes
# δ opioid receptor [4] = biological target: δ opioid receptor (UniProt P41143); remark: listed apart in the source
# δ opioid receptor [5] = biological target: δ opioid receptor (UniProt P41143); experiment: radioligand binding
# μ opioid receptor [6] = biological target: μ opioid receptor (UniProt P35372); experiment: radioligand binding
# Sequence of μ opioid receptor (MOP) (P35372 whole entry, species assumed): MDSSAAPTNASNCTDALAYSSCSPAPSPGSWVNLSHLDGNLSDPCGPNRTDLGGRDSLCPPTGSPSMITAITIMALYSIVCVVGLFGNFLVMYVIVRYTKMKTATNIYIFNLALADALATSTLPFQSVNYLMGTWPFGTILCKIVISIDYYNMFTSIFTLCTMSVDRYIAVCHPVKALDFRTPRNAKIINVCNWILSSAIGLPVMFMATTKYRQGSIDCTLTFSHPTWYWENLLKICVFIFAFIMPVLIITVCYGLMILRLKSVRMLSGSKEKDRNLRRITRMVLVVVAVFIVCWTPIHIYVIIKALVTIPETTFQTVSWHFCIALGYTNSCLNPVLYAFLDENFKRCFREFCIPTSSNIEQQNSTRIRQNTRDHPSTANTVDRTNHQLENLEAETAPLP
Molecule,IC50 in the guinea pig ileum (GPI) assay (μ opioid receptor [1]) [nM],IC50 in the mouse vas deferens (MVD) assay (δ opioid receptor [4]) [nM],IC50 (δ opioid receptor [5]) [nM],IC50 (μ opioid receptor [6]) [nM],other results
DAMGO (peptide),28.3,,,,EPAC DOP EC50 (EPAC cAMP BRET-based biosensor assay) (δ opioid receptor [2]): 49 nM
"Cc1cc(O)cc(C)c1C[C@H](N)C(=O)N[C@H](CCCNC(=N)N)C(=O)N[C@@H](Cc1ccc(-c2ccsc2)cc1)C(=O)NCC(N)=O [Compound 4, Dmt-D-Arg-Phe(4-(3-thienyl))-Gly-NH2]",,,,,Functional character in GPI assay [3]: μ-opioid antagonism
"Cc1cc(O)cc(C)c1C[C@H](N)C(=O)N[C@H](C)C(=O)N[C@@H](Cc1ccccc1-c1ccsc1)C(=O)NCC(N)=O [Compound 16, Dmt-D-Ala-Phe(2-(3-thienyl))-Gly-NH2]",,,,,MOP IC50 (μ opioid receptor (MOP)): poor affinity for MOP
"Cc1cc(O)cc(C)c1C[C@H](N)C(=O)N[C@H](CCCNC(=N)N)C(=O)N[C@@H](Cc1ccc(-c2ccccc2)cc1)C(=O)NCC(N)=O [Compound 1, Dmt-D-Arg-Phe(4-phenyl)-Gly-NH2] (H-[Dmt][dR][Bip]G-NH2)",,,,,Functional character in GPI assay [3]: μ-opioid antagonism
Deltorphin II (peptide),854,,,,
"C=Cc1ccccc1C[C@H](NC(=O)[C@@H](CCCNC(=N)N)NC(=O)[C@@H](N)Cc1c(C)cc(O)cc1C)C(=O)NCC(N)=O [Compound 9, Dmt-D-Arg-Phe(2-vinyl)-Gly-NH2]",,,,,MOP IC50 (μ opioid receptor (MOP)): subnanomolar binding affinity
B1,1.6,2.6,19.8,0.35,
B2,2.39,1.63,,,
B3,,,42.3,7.08,IC20 (partial agonist) in the mouse vas deferens (MVD) assay (δ opioid receptor [4]): 3090 nM
B4,1.18,2.81,8,0.25,
B5,0.901,5.23,,,
B6,,,309,5.04,IC20 (partial agonist) in the mouse vas deferens (MVD) assay (δ opioid receptor [4]): 3960 nM
B7,1.43,9.74,165,0.46,
B8,3.47,6.99,20.2,0.54,
B9,30.4,,601,1.03,IC35 (partial agonist) in the mouse vas deferens (MVD) assay (δ opioid receptor [4]): 52.8 nM
B10,2.26,0.316,,,EPAC DOP EC50 (EPAC cAMP BRET-based biosensor assay) (δ opioid receptor [2]): 1.13 nM
B11,24.1,430,1420,1.82,
B12,0.801,2.95,,,
B13,0.389,0.406,18,0.47,EPAC DOP EC50 (EPAC cAMP BRET-based biosensor assay) (δ opioid receptor [2]): 7 nM
B14,1.54,2.75,625,1.45,EPAC DOP EC50 (EPAC cAMP BRET-based biosensor assay) (δ opioid receptor [2]): 49 nM
B15,1.26,1.78,,,EPAC DOP EC50 (EPAC cAMP BRET-based biosensor assay) (δ opioid receptor [2]): 26.8 nM
B16,0.641,0.689,,,
B17,61.7,,269,0.85,IC40 (partial agonist) in the mouse vas deferens (MVD) assay (δ opioid receptor [4]): 117 nM
